The record followed here is paper PMC5395944.

In the assay the target is PglK-E510Q (C. jejuni) (UniProt Q0P9C4). As to the kind of experiment: crystal structure.

The stoichiometry N is a count of units in the complex or per binding partner. As for “PglK-E510Q (from UniProt Q0P9C4) (natural protein)”, the stoichiometry N stood at 2.
